Biological target: 50S ribosomal subunit
Assay: cryo-EM 2D classification

- stoichiometry N: 2
Substance: 50S ribosomal subunit (complex)

— article doi:10.1101/2020.04.20.050518
